Test results taken from publication PMC7407834 (2020).
Ends that are not written are not given here.

Experiments:
phage clone 1 peptide = target: T1, phage clone 1 peptide (phage-displayed); assay: ELISA
T1 chain: GHIPTCLTPMCR

USPIO-LRPep2 = target: T2, USPIO-LRPep2 (not fully specified (N-terminus, bridges); cysteine pairing not given here; also: grafted to USPIO nanoparticle); assay: ELISA
T2 chain: HPWCCGLRLDLR

Kd (phage clone 1 peptide): 0.136 nM
Kd (USPIO-LRPep2): 72.5 nM
B1: LDLR 22-788 (protein)
chain: not shown
